This note sets out measurements from publication PMC4234381, “Evolution of Acyl-Substrate Recognition by a Family of Acyl-Homoserine Lactone Synthases” (PLoS ONE, 2014).

One data set concerns the target Sfp (Bacillus subtilis, UniProt P39135). Nature of the data set: enzymatic transfer of octyl-phosphopantetheine to apo-ACP, mass spectrum of product. It is filed as biochemical. As to conditions: co-substrate E. coli apo-AcpP; preparative synthesis, 20:1 acyl-CoA to ACP.
A further data set addresses BjaI (Bradyrhizobium diazoefficiens, UniProt Q89VI2). Nature of the data set: DCPIP microplate assay.
Substrate in data set [1]: CC(C)CC(=O)SCCNC(=O)CCNC(=O)[C@H](O)C(C)(C)COP(=O)(O)OP(=O)(O)OC[C@H]1O[C@@H](n2cnc3c(N)ncnc32)[C@H](O)[C@@H]1OP(=O)(O)O
Description: purified protein. The conditions noted are these: 500 µM SAM, 1 µM BjaI, HEPES, final pH 7.3.

Substrate in data set [2]: C[S+](CC[C@H](N)C(=O)O)C[C@H]1O[C@@H](n2cnc3c(N)ncnc32)[C@H](O)[C@@H]1O
Nature of the data set: purified protein. The conditions noted are these: 250 µM isovaleryl-CoA, HEPES, final pH 7.3.

Sfp, sequence (P39135 whole entry): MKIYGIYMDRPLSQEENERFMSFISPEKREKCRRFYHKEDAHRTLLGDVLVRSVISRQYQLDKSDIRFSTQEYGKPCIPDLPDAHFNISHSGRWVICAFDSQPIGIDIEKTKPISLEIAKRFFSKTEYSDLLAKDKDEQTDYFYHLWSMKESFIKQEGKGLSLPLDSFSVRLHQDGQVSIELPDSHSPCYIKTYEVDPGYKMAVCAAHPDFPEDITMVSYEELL

In the case of `CCCCCCCCSCCNC(=O)CCNC(=O)[C@H](O)C(C)(C)COP(=O)(O)OP(=O)(O)OC[C@H]1O[C@@H](n2cnc3c(N)ncnc32)[C@H](O)[C@@H]1OP(=O)(O)O` [octyl-CoA sulfide], on Sfp, the “enzymatic transfer of octyl-phosphopantetheine to apo-ACP, mass spectrum of prod” value is “enzymatic transfer of the alkyl-PPant to apo-ACP using Bacillus subtilis Sfp PPant transferase”.
As a reminder, the Ki is a dissociation constant, usually derived from enzyme kinetics or from competition with a known ligand. `CC(C)CCSCCNC(=O)CCNC(=O)[C@H](O)C(C)(C)COP(=O)(O)OP(=O)(O)OC[C@H]1O[C@@H](n2cnc3c(N)ncnc32)[C@H](O)[C@@H]1OP(=O)(O)O` [isopentyl-CoA] gave a Ki on BjaI of 21 ± 1 µM.

B1: BjaI (Bradyrhizobium diazoefficiens USDA 110) (protein)
chain: MIHAISAVNRHLYEDVLEQHFRLRHDIFVEERHWETLRRPDGREVDSYDDEDTVYLLALEGRRVVGGHRLYPTTKPSMMSEVFPHLAAVRGCPSDPLIWEWSRYFVVRDRRDGALNLQLMAAVQEFCLDQGIAQVSAIMETWWLPRFHEAGFVVTPLGLPALVENAWTMAATVDIRRQTLDVLHDRIGMPSIVQQDGPRLDAVARANLCGLAAAQRKSA
What is called Km is the substrate concentration at which the rate is half of its maximum. A word on the kcat: it is the maximal rate divided by the concentration of active sites. One may read the kcat/Km as the second-order rate constant that governs catalysis at low substrate concentration. For the molecule B1, in “purified protein [1]”, the Km stood at 7.0 ± 0.5 µM, the turnover number (kcat) turned out to be 0.021 ± 0.03 s⁻¹ and the kcat/Km was found to be 3000 M⁻¹ s⁻¹. In addition, the Km in “purified protein [2]” is 39 ± 4 µM.
